According to publication PMC7055376, “Evidence for binary Smc complexes lacking kite subunits in archaea” (IUCrJ, 2020):

What was measured:
[1] = target: the molecule itself; assay: crystal structure; SeMet-substituted full-length PYCH_12850; 35% pentaerythritol propoxylate, 0.1 M MES pH 5.5, 0.4 M NaCl, 22°C
[2] = target: T1, (His)10-MBP-tagged Thermococcus onnurineus ScpA (TON_1071) (Thermococcus onnurineus, UniProt B6YWU6); assay: His pull-down (Ni-NTA) and size-exclusion chromatography
T1 chain: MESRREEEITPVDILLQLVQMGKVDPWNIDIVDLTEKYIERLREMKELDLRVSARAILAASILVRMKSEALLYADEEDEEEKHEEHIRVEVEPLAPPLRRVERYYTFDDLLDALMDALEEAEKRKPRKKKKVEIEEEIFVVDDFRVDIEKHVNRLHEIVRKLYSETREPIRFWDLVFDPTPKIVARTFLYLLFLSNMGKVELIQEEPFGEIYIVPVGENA

[3] = target: the molecule itself; assay: SEC; individual ScpB homologue alone on Superdex 200 Increase 10/300 GL; 20 mM Tris-HCl pH 7.5, 100 mM NaCl, 1 mM DTT, 4°C; elution compared with 158 kDa and 43 kDa markers

B1: Selenomethionine-substituted full-length PYCH_12850 (crystallised) (natural protein, Pyrococcus yayanosii, UniProt F8AFC4 1-192, looked up)
chain: MGLLEDKALVEAALFVAGRPLSLKELSKALGIKSLEYLEKLIELIASEYEERKSAIEVVKVLGDKWVMQLKQEYSQKVIHLMPKPELRAGELKTLALIAYLQPVEQSKIIKLRGSQAYEHIKKLLEMGLIYAEPYERTKLLGTTQKFAELYGFPENDPELIKEAFKKVIHSEYADLMEKIEKNNRKDKREEA
modifications: selenomethionine in place of methionine
notes: ScpB homologue PYCH_12850 of Pyrococcus yayanosii, full length; homodimer in the crystal; also called PYCH_12850 (SeMet); ScpB from Pyrococcus yayanosii; source: E. coli B834 (DE3) RIL, purified
binding result [1]: binds

B2: TON_1955 (putative Thermococcus onnurineus ScpB), untagged (protein)
chain: MGLLEDKALVEAALFVSGRPLSIKELSRALGIRSLDYLEKLIELIAAEYAERKSAIEVVRVLGDKYVMQVKQEYSQRVVHLMPRPDLRTGELKTLALIAYLQPIEQSKLVKLRGSQAYEHIRKLLEMGLIYAEPYERTKLLGTTPKFAELYGFPENDPMMIKEAFKKVVHAEYSDLIAKLEGKEEKEEMPQESEE
binding result [2]: no binding

B3: Metli_0606 (sole ScpB homologue of Methanofollis liminatans), untagged (natural protein, UniProt J1ANV5 1-161, looked up)
chain: MVDRTAMLEAALFVADAPVSYGDLAKIFGIKPGEVPALAQELSGRLSARSSPLEVIDSGESVFMVLKEEYAVLVYPVMRPEISRAVLRTLSVIAYRQPILQSDLIEIRGGGAYAHVEELVKRDLVARYRSGRSYLLQTTPEFSRYFKTSDLVGGQGRLDID
notes: ScpB homologue Metli_0606 of Methanofollis liminatans; untagged in the assays; also called ScpB homologue Metli_0606; source: E. coli BL21 (DE3) RIPL, purified
stoichiometry N [3]: 2
